Experiments:
purified protein [1] = substrate: O=CO; experiment: purified protein; settings: 2 mM BV2+ fixed, formate 0.125-200 mM, 50 mM phosphate pH 7.5, 25 °C, anaerobic
purified protein [2] = substrate: c1ccc(C[n+]2ccc(-c3cc[n+](Cc4ccccc4)cc3)cc2)cc1; experiment: purified protein; format: biochemical, Escherichia coli; settings: 10 mM formate fixed, BV2+ 0.125-20 mM, 50 mM phosphate pH 7.5, 25 °C, anaerobic, artificial electron acceptor

| Protein | Km (purified protein [1]) [µM] | Km (purified protein [2]) [µM] |
| --- | --- | --- |
| EcFDH-H (Escherichia coli formate dehydrogenase H) (Escherichia coli K-12) (protein, full-length selenocysteine-containing enzyme, C-terminal His6-tag, from pTrc99a-fdhF in E. coli JG-X (MC4100 delta-fdhF delta-iscR) with helper pSU21-selC; holds Mo(MGD)2 and one [4Fe-4S] cluster) MKKVVTVCPYCASGCKINLVVDNGKIVRAEAAQGKTNQGTLCLKGYYGWDFINDTQILTPRLKTPMIRRQRGGKLEPVSWDEALNYVAERLSAIKEKYGPDAIQTTGSSRGTGNETNYVMQKFARAVIGTNNVDCCARVUHGPSVAGLHQSVGNGAMSNAINEIDNTDLVFVFGYNPADSHPIVANHVINAKRNGAKIIVCDPRKIETARIADMHIALKNGSNIALLNAMGHVIIEENLYDKAFVASRTEGFEEYRKIVEGYTPESVEDITGVSASEIRQAARMYAQAKSAAILWGMGVTQFYQGVETVRSLTSLAMLTGNLGKPHAGVNPVRGQNNVQGACDMGALPDTYPGYQYVKDPANREKFAKAWGVESLPAHTGYRISELPHRAAHGEVRAAYIMGEDPLQTDAELSAVRKAFEDLELVIVQDIFMTKTASAADVILPSTSWGEHEGVFTAADRGFQRFFKAVEPKWDLKTDWQIISEIATRMGYPMHYNNTQEIWDELRHLCPDFYGATYEKMGELGFIQWPCRDTSDADQGTSYLFKEKFDTPNGLAQFFTCDWVAPIDKLTDEYPMVLSTVREVGHYSCRSMTGNCAALAALADEPGYAQINTEDAKRLGIEDEALVWVHSRKGKIITRAQVSDRPNKGAIYMTYQWWIGACNELVTENLSPITKTPEYKYCAVRVEPIADQRAAEQYVIDEYNKLKTRLREAALA | 1850 ± 270 | 2750 ± 500 |
| EcFDH-H (Escherichia coli formate dehydrogenase H) (Escherichia coli K-12; K44R) (protein, full-length selenocysteine-containing enzyme, C-terminal His6-tag, from pTrc99a-fdhF in E. coli JG-X (MC4100 delta-fdhF delta-iscR) with helper pSU21-selC; holds Mo(MGD)2 and one [4Fe-4S] cluster) MKKVVTVCPYCASGCKINLVVDNGKIVRAEAAQGKTNQGTLCLRGYYGWDFINDTQILTPRLKTPMIRRQRGGKLEPVSWDEALNYVAERLSAIKEKYGPDAIQTTGSSRGTGNETNYVMQKFARAVIGTNNVDCCARVUHGPSVAGLHQSVGNGAMSNAINEIDNTDLVFVFGYNPADSHPIVANHVINAKRNGAKIIVCDPRKIETARIADMHIALKNGSNIALLNAMGHVIIEENLYDKAFVASRTEGFEEYRKIVEGYTPESVEDITGVSASEIRQAARMYAQAKSAAILWGMGVTQFYQGVETVRSLTSLAMLTGNLGKPHAGVNPVRGQNNVQGACDMGALPDTYPGYQYVKDPANREKFAKAWGVESLPAHTGYRISELPHRAAHGEVRAAYIMGEDPLQTDAELSAVRKAFEDLELVIVQDIFMTKTASAADVILPSTSWGEHEGVFTAADRGFQRFFKAVEPKWDLKTDWQIISEIATRMGYPMHYNNTQEIWDELRHLCPDFYGATYEKMGELGFIQWPCRDTSDADQGTSYLFKEKFDTPNGLAQFFTCDWVAPIDKLTDEYPMVLSTVREVGHYSCRSMTGNCAALAALADEPGYAQINTEDAKRLGIEDEALVWVHSRKGKIITRAQVSDRPNKGAIYMTYQWWIGACNELVTENLSPITKTPEYKYCAVRVEPIADQRAAEQYVIDEYNKLKTRLREAALA | 58610 ± 6150 | 2210 ± 370 |
